What was measured:
[1] = biological target: MFV PR-RT ΔRH (deletion variant of MFV PR-RT that lacked the RH domain) (marmoset foamy virus (MFV)); assay: crystal structure; MFV PR-RT ΔRH at 5 mg/ml with 13-bp dsDNA with a 2-nt 5' overhang (substrate 2) at a 1:1 molar ratio; hanging drop; 0.1 M DL-malic acid pH 7.0, 10% PEG 3350; space group C 2
MFV PR-RT full-length [2] = biological target: T1, MFV PR-RT full-length (marmoset foamy virus, UniProt D5JWV1 1-751); assay: X-ray crystallography; monomer; 1:1 mix; GF/MALS: 20 mM HEPES pH 7.0, 250 mM NaCl, 5% glycerol, 0.5 mM EDTA, 1 mM DTT; cryo-EM: 150 mM NaCl, 20 mM HEPES pH 7.0, 1 mM DTT; crystals: N1 Morpheus MES-imidazole pH 6.5, 18 C; N2 0.1 M DL-malic acid pH 7.0, 10% PEG 3350; details: protein: recombinant; tags: 6xHis-SUMO (pET28 vector); 15 bp; RNA 5' overhang 2 nt and 3' overhang 1 nt; recessed DNA 3' end
MFV PR-RT full-length [3] = biological target: T1, MFV PR-RT full-length; assay: GF/MALS; 2:1 protein:NA; 0.5 mM EDTA; single peak 123.3 kDa, one protein per hybrid; GF/MALS: 20 mM HEPES pH 7.0, 250 mM NaCl, 5% glycerol, 0.5 mM EDTA, 1 mM DTT; cryo-EM: 150 mM NaCl, 20 mM HEPES pH 7.0, 1 mM DTT; crystals: N1 Morpheus MES-imidazole pH 6.5, 18 C; N2 0.1 M DL-malic acid pH 7.0, 10% PEG 3350; details: protein: recombinant; tags: 6xHis-SUMO (pET28 vector); 28 bp, 5' overhang 6 nt on RNA
MFV PR-RT full-length [4] = biological target: T1, MFV PR-RT full-length; assay: cryo-EM (4.8 A); asymmetric dimer; EMD-12698; GF/MALS: 20 mM HEPES pH 7.0, 250 mM NaCl, 5% glycerol, 0.5 mM EDTA, 1 mM DTT; cryo-EM: 150 mM NaCl, 20 mM HEPES pH 7.0, 1 mM DTT; crystals: N1 Morpheus MES-imidazole pH 6.5, 18 C; N2 0.1 M DL-malic acid pH 7.0, 10% PEG 3350; details: protein: recombinant; tags: 6xHis-SUMO (pET28 vector); 22 bp, 5' overhang 2 nt on template
MFV PR-RT ΔRH = MFV PR-RT ΔRH (marmoset foamy virus, UniProt D5JWV1 1-588); assay: X-ray crystallography; asymmetric homodimer; 1:1 mix; GF/MALS: 20 mM HEPES pH 7.0, 250 mM NaCl, 5% glycerol, 0.5 mM EDTA, 1 mM DTT; cryo-EM: 150 mM NaCl, 20 mM HEPES pH 7.0, 1 mM DTT; crystals: N1 Morpheus MES-imidazole pH 6.5, 18 C; N2 0.1 M DL-malic acid pH 7.0, 10% PEG 3350; details: protein: recombinant; tags: 6xHis-SUMO (pET28 vector); chain copies: 2; 13 bp, 5' overhang 2 nt on template

Molecule: MFV PR-RT ΔRH (deletion variant of MFV PR-RT that lacked the RH domain) (domain or fragment)
- stoichiometry N [1]: 2

B1: substrate 1 PPT RNA/DNA hybrid (DNA:RNA)
RNA: UUCUUGUCCAGGAGAGGG
DNA: CCTCTCCTGGACAAG
- binding result (MFV PR-RT full-length [2]): binds

B2: GF/MALS RNA/DNA hybrid (DNA:RNA)
RNA: GUGAGCGAACAGAGUGCGACACCUGAUUCCAUGA
DNA: TCATGGAATCAGGTGTCGCACTCTGTTC
- binding result (MFV PR-RT full-length [3]): binds

B3: substrate 3 dsDNA (dsDNA)
DNA 1: AACAGAGTGCGACACCTGATTCCA
DNA 2: TGGAATCAGGTGTCGCACTCTG
- binding result (MFV PR-RT full-length [4]): binds

B4: substrate 2 dsDNA (dsDNA)
DNA 1: AACAGAGTGCGACAC
DNA 2: GTGTCGCACTCTG
- binding result (MFV PR-RT ΔRH): binds

— publication PMC8387031, “Structures of Substrate Complexes of Foamy Viral Protease-Reverse Transcriptase”
